From patent US20030109439A1

Molecular target: KGF receptor (mouse) (UniProt P21803)
Test: cell-based or functional assay

UniProt P21803, sequence (P21803 22-821): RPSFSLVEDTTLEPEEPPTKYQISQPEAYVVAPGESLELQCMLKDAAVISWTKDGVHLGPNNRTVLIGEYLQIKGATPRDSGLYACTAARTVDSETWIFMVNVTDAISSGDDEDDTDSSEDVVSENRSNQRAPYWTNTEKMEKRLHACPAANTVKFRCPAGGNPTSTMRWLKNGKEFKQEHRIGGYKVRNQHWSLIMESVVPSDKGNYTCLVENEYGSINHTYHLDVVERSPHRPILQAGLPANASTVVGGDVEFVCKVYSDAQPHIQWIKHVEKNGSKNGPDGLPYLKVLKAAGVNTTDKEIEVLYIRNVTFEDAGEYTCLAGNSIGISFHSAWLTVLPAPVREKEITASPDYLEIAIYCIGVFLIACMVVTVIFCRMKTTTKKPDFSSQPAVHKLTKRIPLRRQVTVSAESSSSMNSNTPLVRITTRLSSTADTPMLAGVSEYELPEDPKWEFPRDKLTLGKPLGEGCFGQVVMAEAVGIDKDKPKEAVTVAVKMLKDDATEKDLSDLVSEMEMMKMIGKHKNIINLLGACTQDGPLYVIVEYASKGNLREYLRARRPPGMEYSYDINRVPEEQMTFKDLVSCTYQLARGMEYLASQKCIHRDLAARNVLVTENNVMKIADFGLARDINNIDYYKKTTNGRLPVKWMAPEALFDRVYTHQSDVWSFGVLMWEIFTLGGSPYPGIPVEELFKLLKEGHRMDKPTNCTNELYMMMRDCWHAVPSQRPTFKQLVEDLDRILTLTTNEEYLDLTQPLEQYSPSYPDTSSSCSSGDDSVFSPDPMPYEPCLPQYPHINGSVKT

acidic FGF (ligand) showed a potency as mitogen for Balb/Mk cells (cell proliferation), relative to KGF (fold less than KGF) of 10.
